Patent US20220143024A1, “METHODS OF USING IMIPRIDONES” (Board of Regents, The University of Texas System, priority 2019, published 2022)

Tests used:
Experiment in all cases: BioID-MS
SPRYD4 (human) = SPRYD4 (human) (UniProt Q8WW59)
NMNAT3 (human) = NMNAT3 (human) (UniProt Q96T66)
C7orf55 (human) = C7orf55 (human) (UniProt Q96HJ9)
MTPAP (human) = MTPAP (human) (UniProt Q9NVV4)
THEM4 (human) = THEM4 (human) (UniProt Q5T1C6)
FASTKD2 (human) = FASTKD2 (human) (UniProt Q9NYY8)
PDK3 (human) = PDK3 (human) (UniProt Q15120)
MPST (human) = MPST (human) (UniProt P25325)
C20orf72 (human) = C20orf72 (human) (UniProt Q9BQP7)
ACADM (human) = ACADM (human) (UniProt P11310)
MRPL54 (human) = MRPL54 (human) (UniProt Q6P161)
RG9MTD1 (human) = RG9MTD1 (human) (UniProt Q7L0Y3)
ATPAF1 (human) = ATPAF1 (human) (UniProt Q5TC12)
SLIRP (human) = SLIRP (human) (UniProt Q9GZT3)
MRPS17 (human) = MRPS17 (human) (UniProt Q9Y2R5)
COX4I1 (human) = COX4I1 (human) (UniProt P13073)
NUDT1 (human) = NUDT1 (human) (UniProt P36639)
ACADVL (human) = ACADVL (human) (UniProt P49748)
HSDL2 (human) = HSDL2 (human) (UniProt Q6YN16)
OGDH (human) = OGDH (human) (UniProt Q02218)
ALDH6A1 (human) = ALDH6A1 (human) (UniProt Q02252)
WARS2 (human) = WARS2 (human) (UniProt Q9UGM6)
NDUFAF2 (human) = NDUFAF2 (human) (UniProt Q8N183)
GATB (human) = GATB (human) (UniProt O75879)
NARS2 (human) = NARS2 (human) (UniProt Q96I59)
GLRX5 (human) = GLRX5 (human) (UniProt Q86SX6)
C8orf82 (human) = C8orf82 (human) (UniProt Q6P1X6)
POLG (human) = POLG (human) (UniProt P54098)
COQ6 (human) = COQ6 (human) (UniProt Q9Y2Z9)
VWA8 (human) = VWA8 (human) (UniProt A3KMH1)
NFUl (human) = NFUl (human) (UniProt Q9UMS0)
PPA2 (human) = PPA2 (human) (UniProt Q9H2U2)
MRPL48 (human) = MRPL48 (human) (UniProt Q96GC5)
ACAA2 (human) = ACAA2 (human) (UniProt P42765)
FECH (human) = FECH (human) (UniProt P22830)
CRAT (human) = CRAT (human) (UniProt P43155)
NDUFAF3 (human) = NDUFAF3 (human) (UniProt Q9BU61)
MICU2 (human) = MICU2 (human) (UniProt Q8IYU8)
GRPEL1 (human) = GRPEL1 (human) (UniProt Q9HAV7)
GRSF1 (human) = GRSF1 (human) (UniProt Q12849)
SDHA (human) = SDHA (human) (UniProt P31040)
ALDH1L2 (human) = ALDH1L2 (human) (UniProt Q3SY69)
NUDT19 (human) = NUDT19 (human) (UniProt A8MXV4)
MRPL45 (human) = MRPL45 (human) (UniProt Q9BRJ2)
SLC27A2 (human) = SLC27A2 (human) (UniProt O14975)
HSPA1L (human) = HSPA1L (human) (UniProt P34931)
CPOX (human) = CPOX (human) (UniProt P36551)
MRPS26 (human) = MRPS26 (human) (UniProt Q9BYN8)
ERAL1 (human) = ERAL1 (human) (UniProt O75616)
SUCLA2 (human) = SUCLA2 (human) (UniProt Q9P2R7)
PPIF (human) = PPIF (human) (UniProt P30405)
MRRF (human) = MRRF (human) (UniProt Q96E11)
PTPMT1 (human) = PTPMT1 (human) (UniProt Q8WUK0)
CLYBL (human) = CLYBL (human) (UniProt Q8N0X4)
ABCB10 (human) = ABCB10 (human) (UniProt Q9NRK6)
AARS2 (human) = AARS2 (human) (UniProt Q5JTZ9)
MRPS7 (human) = MRPS7 (human) (UniProt Q9Y2R9)
PAM16 (human) = PAM16 (human) (UniProt Q9Y3D7)
Sequence of PAM16 (human) (Q9Y3D7 whole entry): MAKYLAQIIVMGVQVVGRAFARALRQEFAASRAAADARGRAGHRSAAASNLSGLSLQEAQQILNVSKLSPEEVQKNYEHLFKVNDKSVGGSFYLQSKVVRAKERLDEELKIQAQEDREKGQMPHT

Sequence of OGDH (human) (Q02218 41-1023 limits assumed): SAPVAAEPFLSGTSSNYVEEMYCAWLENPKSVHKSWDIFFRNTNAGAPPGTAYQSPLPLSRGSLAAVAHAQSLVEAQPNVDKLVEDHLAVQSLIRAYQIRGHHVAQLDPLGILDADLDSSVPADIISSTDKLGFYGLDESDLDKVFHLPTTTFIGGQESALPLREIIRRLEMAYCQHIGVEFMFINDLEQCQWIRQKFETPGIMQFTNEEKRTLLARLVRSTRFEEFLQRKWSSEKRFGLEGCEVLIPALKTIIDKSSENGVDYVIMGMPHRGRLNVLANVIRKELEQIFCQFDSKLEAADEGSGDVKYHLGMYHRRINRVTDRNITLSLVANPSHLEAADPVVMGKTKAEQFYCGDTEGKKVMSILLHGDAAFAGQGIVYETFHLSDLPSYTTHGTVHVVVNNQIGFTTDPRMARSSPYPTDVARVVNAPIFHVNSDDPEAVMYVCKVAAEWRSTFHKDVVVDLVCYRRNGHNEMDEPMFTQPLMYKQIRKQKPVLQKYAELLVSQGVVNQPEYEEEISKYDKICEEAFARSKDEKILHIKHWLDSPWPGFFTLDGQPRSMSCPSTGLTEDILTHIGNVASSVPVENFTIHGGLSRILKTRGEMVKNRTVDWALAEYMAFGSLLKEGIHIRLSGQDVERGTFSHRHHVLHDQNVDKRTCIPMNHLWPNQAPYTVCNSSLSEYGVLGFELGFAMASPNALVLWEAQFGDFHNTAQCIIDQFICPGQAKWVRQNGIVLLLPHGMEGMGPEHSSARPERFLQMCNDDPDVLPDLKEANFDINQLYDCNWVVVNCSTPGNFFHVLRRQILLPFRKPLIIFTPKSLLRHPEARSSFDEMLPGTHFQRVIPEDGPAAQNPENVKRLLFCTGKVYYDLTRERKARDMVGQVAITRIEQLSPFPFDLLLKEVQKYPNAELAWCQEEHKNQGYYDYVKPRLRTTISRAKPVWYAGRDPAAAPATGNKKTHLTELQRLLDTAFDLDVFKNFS
Sequence of NMNAT3 (human) (Q96T66 whole entry): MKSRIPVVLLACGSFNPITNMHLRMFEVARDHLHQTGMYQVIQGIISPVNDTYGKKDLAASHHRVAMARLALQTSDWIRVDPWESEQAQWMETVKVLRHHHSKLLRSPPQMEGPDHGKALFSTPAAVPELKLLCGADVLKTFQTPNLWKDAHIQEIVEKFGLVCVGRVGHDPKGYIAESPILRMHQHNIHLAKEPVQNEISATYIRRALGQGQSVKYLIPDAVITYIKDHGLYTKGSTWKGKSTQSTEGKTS
Sequence of ATPAF1 (human) (Q5TC12 58-328 limits assumed): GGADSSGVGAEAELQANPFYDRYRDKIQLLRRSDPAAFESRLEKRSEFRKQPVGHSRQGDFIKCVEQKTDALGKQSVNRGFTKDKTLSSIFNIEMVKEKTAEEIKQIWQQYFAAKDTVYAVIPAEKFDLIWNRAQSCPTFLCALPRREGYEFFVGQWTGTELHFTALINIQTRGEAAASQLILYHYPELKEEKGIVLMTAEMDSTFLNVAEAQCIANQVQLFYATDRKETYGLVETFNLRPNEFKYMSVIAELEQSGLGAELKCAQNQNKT
Sequence of ERAL1 (human) (O75616 44-437 limits assumed): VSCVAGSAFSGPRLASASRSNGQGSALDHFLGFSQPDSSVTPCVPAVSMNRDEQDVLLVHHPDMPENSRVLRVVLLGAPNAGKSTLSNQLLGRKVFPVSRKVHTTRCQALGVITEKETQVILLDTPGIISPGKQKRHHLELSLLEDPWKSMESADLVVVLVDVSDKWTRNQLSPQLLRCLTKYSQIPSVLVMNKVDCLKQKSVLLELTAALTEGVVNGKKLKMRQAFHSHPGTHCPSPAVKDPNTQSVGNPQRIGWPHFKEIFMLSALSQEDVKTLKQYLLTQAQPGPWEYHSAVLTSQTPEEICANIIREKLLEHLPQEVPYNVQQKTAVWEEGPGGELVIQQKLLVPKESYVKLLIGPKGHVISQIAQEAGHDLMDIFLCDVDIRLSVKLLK
Sequence of RG9MTD1 (human) (Q7L0Y3 40-403 limits assumed): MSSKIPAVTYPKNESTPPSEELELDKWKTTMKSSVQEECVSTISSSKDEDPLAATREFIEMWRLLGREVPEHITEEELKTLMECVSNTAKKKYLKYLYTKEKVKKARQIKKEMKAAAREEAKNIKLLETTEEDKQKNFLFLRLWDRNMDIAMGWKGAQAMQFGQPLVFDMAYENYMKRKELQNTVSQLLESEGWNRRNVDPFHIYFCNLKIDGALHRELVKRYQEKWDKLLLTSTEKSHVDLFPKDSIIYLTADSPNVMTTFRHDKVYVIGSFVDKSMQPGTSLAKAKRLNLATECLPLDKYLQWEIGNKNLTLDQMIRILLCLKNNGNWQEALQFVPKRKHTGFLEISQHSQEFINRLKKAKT
Sequence of ACADVL (human) (P49748 41-655 limits assumed): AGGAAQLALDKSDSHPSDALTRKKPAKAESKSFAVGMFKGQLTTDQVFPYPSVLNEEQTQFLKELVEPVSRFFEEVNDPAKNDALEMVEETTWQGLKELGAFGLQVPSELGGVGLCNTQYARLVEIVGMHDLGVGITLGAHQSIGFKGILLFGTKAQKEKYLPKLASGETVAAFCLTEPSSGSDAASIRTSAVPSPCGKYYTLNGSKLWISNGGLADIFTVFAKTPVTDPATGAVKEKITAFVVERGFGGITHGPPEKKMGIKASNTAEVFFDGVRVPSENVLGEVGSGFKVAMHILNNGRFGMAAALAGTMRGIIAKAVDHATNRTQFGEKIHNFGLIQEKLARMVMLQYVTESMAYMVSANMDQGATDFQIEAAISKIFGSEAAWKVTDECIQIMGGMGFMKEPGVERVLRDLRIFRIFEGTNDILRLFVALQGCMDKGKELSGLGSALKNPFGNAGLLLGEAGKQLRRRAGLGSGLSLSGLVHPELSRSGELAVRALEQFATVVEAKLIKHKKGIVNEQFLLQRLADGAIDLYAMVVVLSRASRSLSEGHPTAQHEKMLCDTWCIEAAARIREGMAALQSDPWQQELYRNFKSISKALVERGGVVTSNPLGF
Sequence of ABCB10 (human) (Q9NRK6 106-738 limits assumed): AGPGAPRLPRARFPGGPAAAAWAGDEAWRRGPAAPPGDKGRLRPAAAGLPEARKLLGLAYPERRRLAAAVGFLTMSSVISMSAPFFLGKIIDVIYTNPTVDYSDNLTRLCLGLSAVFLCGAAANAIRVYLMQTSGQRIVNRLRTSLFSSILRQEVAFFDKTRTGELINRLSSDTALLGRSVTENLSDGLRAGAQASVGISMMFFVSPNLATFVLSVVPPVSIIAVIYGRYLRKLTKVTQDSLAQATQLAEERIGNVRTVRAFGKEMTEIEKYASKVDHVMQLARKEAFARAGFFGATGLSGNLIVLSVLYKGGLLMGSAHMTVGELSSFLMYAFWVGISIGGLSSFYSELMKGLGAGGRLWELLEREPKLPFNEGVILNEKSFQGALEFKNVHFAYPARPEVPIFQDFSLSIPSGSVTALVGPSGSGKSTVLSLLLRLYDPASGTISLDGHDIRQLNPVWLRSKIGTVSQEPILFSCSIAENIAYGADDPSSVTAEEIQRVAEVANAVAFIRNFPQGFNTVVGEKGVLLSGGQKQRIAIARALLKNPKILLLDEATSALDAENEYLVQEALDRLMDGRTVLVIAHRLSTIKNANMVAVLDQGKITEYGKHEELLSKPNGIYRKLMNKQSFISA
Sequence of PDK3 (human) (Q15120 whole entry): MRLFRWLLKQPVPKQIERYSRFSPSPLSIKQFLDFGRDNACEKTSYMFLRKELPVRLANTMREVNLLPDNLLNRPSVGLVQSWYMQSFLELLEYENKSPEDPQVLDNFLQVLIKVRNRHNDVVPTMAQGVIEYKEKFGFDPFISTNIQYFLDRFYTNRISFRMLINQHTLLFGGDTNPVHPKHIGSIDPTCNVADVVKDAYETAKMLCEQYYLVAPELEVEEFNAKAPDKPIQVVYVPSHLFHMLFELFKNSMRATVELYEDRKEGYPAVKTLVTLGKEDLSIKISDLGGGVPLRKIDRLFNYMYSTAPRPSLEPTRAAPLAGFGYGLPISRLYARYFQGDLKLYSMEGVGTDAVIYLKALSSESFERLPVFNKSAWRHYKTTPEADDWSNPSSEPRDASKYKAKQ
Sequence of MPST (human) (P25325 2-297 limits assumed): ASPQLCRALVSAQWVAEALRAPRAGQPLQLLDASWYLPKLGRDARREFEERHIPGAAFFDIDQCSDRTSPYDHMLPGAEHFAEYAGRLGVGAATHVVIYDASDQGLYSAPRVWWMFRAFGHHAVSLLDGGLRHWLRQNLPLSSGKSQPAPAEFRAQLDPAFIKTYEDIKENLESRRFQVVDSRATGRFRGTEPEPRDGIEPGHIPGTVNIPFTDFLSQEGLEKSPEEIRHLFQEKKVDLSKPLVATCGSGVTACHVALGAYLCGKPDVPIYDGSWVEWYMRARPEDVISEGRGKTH
Sequence of NDUFAF2 (human) (Q8N183 whole entry): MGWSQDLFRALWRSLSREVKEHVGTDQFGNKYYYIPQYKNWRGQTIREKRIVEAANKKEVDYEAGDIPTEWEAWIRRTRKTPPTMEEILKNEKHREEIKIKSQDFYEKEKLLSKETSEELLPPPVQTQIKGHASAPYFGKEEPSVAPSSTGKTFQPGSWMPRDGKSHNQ
Sequence of PPIF (human) (P30405 30-207 limits assumed): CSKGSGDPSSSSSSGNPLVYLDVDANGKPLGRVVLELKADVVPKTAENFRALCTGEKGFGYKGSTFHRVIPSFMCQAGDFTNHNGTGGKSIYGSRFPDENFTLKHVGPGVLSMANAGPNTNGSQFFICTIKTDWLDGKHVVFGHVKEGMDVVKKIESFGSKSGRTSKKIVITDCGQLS
Sequence of PTPMT1 (human) (Q8WUK0 28-201 limits assumed): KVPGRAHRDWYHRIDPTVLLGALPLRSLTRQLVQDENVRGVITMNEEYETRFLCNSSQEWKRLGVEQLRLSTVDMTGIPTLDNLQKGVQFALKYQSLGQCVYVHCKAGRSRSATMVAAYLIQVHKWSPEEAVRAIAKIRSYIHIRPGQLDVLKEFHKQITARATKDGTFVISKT

Log2 Fold change (vs control) (SPRYD4 (human)): 0.22 log2
Log2 Fold change (vs control) (NMNAT3 (human)): -4 log2
Log2 Fold change (vs control) (C7orf55 (human)): -0.74 log2
Log2 Fold change (vs control) (MTPAP (human)): -0.78 log2
Log2 Fold change (vs control) (THEM4 (human)): -0.17 log2
Log2 Fold change (vs control) (FASTKD2 (human)): 0.71 log2
Log2 Fold change (vs control) (PDK3 (human)): 0.6 log2
Log2 Fold change (vs control) (MPST (human)): -1.29 log2
Log2 Fold change (vs control) (C20orf72 (human)): 0.12 log2
Log2 Fold change (vs control) (ACADM (human)): -0.4 log2
Log2 Fold change (vs control) (MRPL54 (human)): -3 log2
Log2 Fold change (vs control) (RG9MTD1 (human)): 0.47 log2
Log2 Fold change (vs control) (ATPAF1 (human)): 0.59 log2
Log2 Fold change (vs control) (SLIRP (human)): 0.25 log2
Log2 Fold change (vs control) (MRPS17 (human)): -0.55 log2
Log2 Fold change (vs control) (COX4I1 (human)): 0.17 log2
Log2 Fold change (vs control) (NUDT1 (human)): -3.17 log2
Log2 Fold change (vs control) (ACADVL (human)): 0.28 log2
Log2 Fold change (vs control) (HSDL2 (human)): 0.83 log2
Log2 Fold change (vs control) (OGDH (human)): 1.67 log2
Log2 Fold change (vs control) (ALDH6A1 (human)): -1.22 log2
Log2 Fold change (vs control) (WARS2 (human)): 0.25 log2
Log2 Fold change (vs control) (NDUFAF2 (human)): -0.15 log2
Log2 Fold change (vs control) (GATB (human)): -3.1 log2
Log2 Fold change (vs control) (NARS2 (human)): -0.14 log2
Log2 Fold change (vs control) (GLRX5 (human)): -0.26 log2
Log2 Fold change (vs control) (C8orf82 (human)): 1.6 log2
Log2 Fold change (vs control) (POLG (human)): 0.26 log2
Log2 Fold change (vs control) (COQ6 (human)): 0.62 log2
Log2 Fold change (vs control) (VWA8 (human)): 1.02 log2
Log2 Fold change (vs control) (NFUl (human)): -0.32 log2
Log2 Fold change (vs control) (PPA2 (human)): 0.02 log2
Log2 Fold change (vs control) (MRPL48 (human)): 0.15 log2
Log2 Fold change (vs control) (ACAA2 (human)): -0.92 log2
Log2 Fold change (vs control) (FECH (human)): -0.68 log2
Log2 Fold change (vs control) (CRAT (human)): -3 log2
Log2 Fold change (vs control) (NDUFAF3 (human)): 0.46 log2
Log2 Fold change (vs control) (MICU2 (human)): -0.18 log2
Log2 Fold change (vs control) (GRPEL1 (human)): 0 log2
Log2 Fold change (vs control) (GRSF1 (human)): 1.91 log2
Log2 Fold change (vs control) (SDHA (human)): 0.34 log2
Log2 Fold change (vs control) (ALDH1L2 (human)): -0.69 log2
Log2 Fold change (vs control) (NUDT19 (human)): -0.58 log2
Log2 Fold change (vs control) (MRPL45 (human)): -0.29 log2
Log2 Fold change (vs control) (SLC27A2 (human)): -3.81 log2
Log2 Fold change (vs control) (HSPA1L (human)): -0.71 log2
Log2 Fold change (vs control) (CPOX (human)): 0.88 log2
Log2 Fold change (vs control) (MRPS26 (human)): -0.52 log2
Log2 Fold change (vs control) (ERAL1 (human)): -1.33 log2
Log2 Fold change (vs control) (SUCLA2 (human)): -0.06 log2
Log2 Fold change (vs control) (PPIF (human)): 0.09 log2
Log2 Fold change (vs control) (MRRF (human)): -0.1 log2
Log2 Fold change (vs control) (PTPMT1 (human)): -0.04 log2
Log2 Fold change (vs control) (CLYBL (human)): -3.17 log2
Log2 Fold change (vs control) (ABCB10 (human)): -1.32 log2
Log2 Fold change (vs control) (AARS2 (human)): -0.14 log2
Log2 Fold change (vs control) (MRPS7 (human)): 0.71 log2
Log2 Fold change (vs control) (PAM16 (human)): -0.42 log2
Substance: FlagBirA-ClpP (Y118A) (from UniProt P06709 1-321; Q16740 57-277) (enzyme)
